We go through 3 molecules from patent CN109942708A (SHANGHAI KEQI PHARMACEUTICAL TECH CO LTD, dated 2019).

Where “and” joins values, the source holds several entries; their conditions need not be identical. Identical values can stand only once.

The target in test [1] is BCMA-FC抗原 (UniProt Q02223). In words: phage ELISA on coated BCMA-FC, helper phage control. On the technique in general: An ELISA detects its analyte on a solid surface through an enzyme-linked reagent.
Test [2] deals with BCMA-his抗原 (UniProt Q02223). Put plainly: phage ELISA on coated BCMA-his, helper phage control.
For test [3], the target named is BCMA-his抗原 (UniProt Q02223). The description is as above. The source holds these as a separate data set.
For another test, the target named is T1, BCMA抗原 (UniProt Q02223 1-54).
T1 construct: Recombinant BCMA antigen as immobilised on the Biacore chip and coated in the specificity ELISA; also called B细胞成熟抗原; B cell maturation antigen
T1 sequence (looked up): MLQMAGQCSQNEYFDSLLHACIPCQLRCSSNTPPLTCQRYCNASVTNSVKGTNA
In words: SPR, Biacore T2000, BCMA amine-coupled to the chip, VHH injected, 25°C. On the technique in general: In SPR one partner is held on a chip, and binding of the other changes the refractive index at the surface.

The target of test [4] is BCMA-his抗原 (UniProt Q02223). Put plainly: phage ELISA on coated BCMA-his.
A further test concerns the target T2, CD38 (UniProt P28907 43-300).
T2 construct: Coated antigen in the specificity ELISA; also called CD38抗原
T2 sequence (looked up): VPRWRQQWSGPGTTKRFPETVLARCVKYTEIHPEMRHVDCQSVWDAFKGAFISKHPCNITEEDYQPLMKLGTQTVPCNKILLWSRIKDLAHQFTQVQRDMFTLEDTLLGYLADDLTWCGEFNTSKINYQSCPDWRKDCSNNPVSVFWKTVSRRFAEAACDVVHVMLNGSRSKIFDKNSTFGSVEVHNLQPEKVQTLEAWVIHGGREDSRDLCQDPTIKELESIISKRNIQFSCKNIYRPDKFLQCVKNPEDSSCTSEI
Put plainly: ELISA on antigen coated at 10ug/mL.

Another test addresses T3, CD138 (UniProt P18827 23-254, limits assumed).
T3 construct: Coated antigen in the specificity ELISA; also called CD138抗原
T3 sequence (looked up): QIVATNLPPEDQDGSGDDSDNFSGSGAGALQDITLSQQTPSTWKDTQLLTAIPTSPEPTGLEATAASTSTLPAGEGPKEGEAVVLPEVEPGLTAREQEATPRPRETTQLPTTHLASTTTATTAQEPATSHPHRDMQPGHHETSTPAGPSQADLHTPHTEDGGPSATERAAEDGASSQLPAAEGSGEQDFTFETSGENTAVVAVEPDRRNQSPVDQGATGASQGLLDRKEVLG
Put plainly: ELISA on antigen coated at 10ug/mL.

Test [5] has as its target BCMA-FC抗原 (UniProt Q02223). In words: phage ELISA on coated BCMA-FC.

With M13K07, the OD450 with BCMA-FC抗原 [1] was 0.518 OD450 and 0.332 OD450; with BCMA-his抗原 [2], 2.36 OD450 and 2.38 OD450; with BCMA-his抗原 [3], 0.85 OD450 and 0.631 OD450.

B1: BCMA单域抗体B1 (VHH)
VHH: QVQLVESGGGLVQPGGSLRLSCTASGSILSIYAMGWYRQAPGKQRELVAAINISSNTFYRDSVKGRFTISRDNAENTVYLQMNSLKPEDTAVYYCNVAPWGDYDVKTDFGGWGQGTQVTVSS
notes: FITC-labelled for flow cytometry; also called B1抗体
Regarding B1, the Kd with BCMA抗原 is 2.14 nM. The figures for the OD450 with BCMA-his抗原 [4] and with BCMA-FC抗原 [5] were 2.33 OD450 and 2.96 OD450, respectively. For the same molecule, the binding result in the test with CD38 and in the test with CD138 was “no binding” each time.

B2: BCMA单域抗体B65 (VHH)
VHH: QLQLVESGGGLVQPGGSLRLSCAASGSISGIYAMGWYRQAPGKQRRLVAAITSGGDTFHADSVKGRFTISRDNAKNTMYLQMNSLKPEDTAVYYCNVAPWGDYDVRADFGSWGQGTQVTVSS
notes: FITC-labelled for flow cytometry; also called B65抗体
Take B2: the affinity in the test with BCMA抗原, expressed as Kd, was 0.32 nM. In the test with BCMA-his抗原 [4], the OD450 worked out at 2.76 OD450. Besides, the binding result with CD38 and with CD138 was “no binding” throughout.

Usually Kd stands for the free concentration of one partner at which half of the binding sites on the other are occupied at equilibrium, for simple one-to-one binding. A high value points to weaker binding.
